Experimental data reported in US20240247080A1, “GLP1/GIP/NPY2 RECEPTOR TRIPLE AGONISTS” (Boehringer Ingelheim International GmbH, priority 2022, published 2024).
Starred links: 1 amine or outer side, 2 acyl side, 3 side chain; linkers in the order of their positions; H or OH if unused. Non-standard residues stand in square brackets, D forms with d. Groups on a side chain read outwards from the residue. No end group written: not given here. *: point of attachment. C20 diacid = O=C(O)CCCCCCCCCCCCCCCCCCC(=O)*; C18 diacid = O=C(O)CCCCCCCCCCCCCCCCC(=O)*; γGlu = O=C(O)[C@H](CCC(=O)[*:2])N[*:1]; AEEA = NCCOCCOCC(=O)O; Aib = CC(C)(N)C(=O)O; Ahx = NCCCCCC(=O)O; OEG = OEG spacer

What was measured:
Experiment in all cases: cell-based or functional assay
[1] = target: human GLP-1 receptor (human, UniProt P43220 24-463)
[2] = target: T1, human GIP receptor (human, UniProt P48546 22-466)
T1 sequence (looked up): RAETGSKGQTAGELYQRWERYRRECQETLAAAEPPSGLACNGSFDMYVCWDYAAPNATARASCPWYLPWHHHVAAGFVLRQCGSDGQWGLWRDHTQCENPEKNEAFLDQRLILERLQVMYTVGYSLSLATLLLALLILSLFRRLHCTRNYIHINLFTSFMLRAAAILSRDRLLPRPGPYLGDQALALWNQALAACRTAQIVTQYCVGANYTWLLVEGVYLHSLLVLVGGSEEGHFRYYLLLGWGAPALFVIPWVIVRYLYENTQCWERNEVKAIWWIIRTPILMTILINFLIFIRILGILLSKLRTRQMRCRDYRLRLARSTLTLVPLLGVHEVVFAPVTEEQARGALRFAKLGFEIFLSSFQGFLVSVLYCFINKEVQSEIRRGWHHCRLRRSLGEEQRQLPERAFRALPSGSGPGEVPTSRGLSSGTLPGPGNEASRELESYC

[3] = target: T2, human neuropeptide Y2 receptor (human, UniProt P49146 1-381)
T2 sequence (looked up): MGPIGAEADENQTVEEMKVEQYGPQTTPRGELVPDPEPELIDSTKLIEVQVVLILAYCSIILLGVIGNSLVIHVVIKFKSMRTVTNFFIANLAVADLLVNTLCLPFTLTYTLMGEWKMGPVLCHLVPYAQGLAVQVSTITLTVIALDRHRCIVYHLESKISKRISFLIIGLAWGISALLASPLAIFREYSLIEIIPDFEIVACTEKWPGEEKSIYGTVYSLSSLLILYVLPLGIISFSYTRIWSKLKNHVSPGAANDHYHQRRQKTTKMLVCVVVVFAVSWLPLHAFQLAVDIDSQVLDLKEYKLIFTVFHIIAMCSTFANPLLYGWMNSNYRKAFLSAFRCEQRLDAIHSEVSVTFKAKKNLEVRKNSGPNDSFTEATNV

Binder | EC50 hGLP1R 0.5% hP (CreLuc) [1] | EC50 hGLP1R 100% hP (CreLuc) [1] | EC50 hGIPR 0.5% hP (CreLuc) [2] | EC50 hGIPR 100% hP (CreLuc) [2] | EC50 hNPY2R 0.5% hP (CreLuc) [3] | EC50 hNPY2R 100% hP (CreLuc) [3]
Y[Aib]EGTFTSDYSI[Aib]LEKQAQ[Aib]AFVEWLIKGGPSEGASLRHYYNWLTRQRY-NH2 (not fully specified (residue 28); also: TFA salt) [Compound 296] | 0.11 nM | 3.5 nM | 1.39 nM | 1.11 nM | 14.1 nM | 56.5 nM
YXEGTFTSDYSIXLEKQAQXAFVEWLIKGGPSEGASLRHYYNWLTRQRY (Aib at 2, 13, 20; K28 side chain acylated with C18DA-gGlu-gGlu-gGlu-gGlu-gGlu; C-terminal amide (NH2)) [Compound 292] | 0.13 nM | 5.01 nM | 0.16 nM | 2.46 nM | 19.9 nM | 70 nM
YXEGTFTSDYSIXLEKQAQXAFVEWLIKGGPSEGASLRHYYNWLTRQRY (Aib at 2, 13, 20; K28 side chain acylated with C18DA-gGlu-Glu-gGlu-gGlu-gGlu-gGlu-eLys (so in the source); C-terminal amide (NH2)) [Compound 293] | 0.18 nM | 4.21 nM | 0.26 nM | 1.33 nM | 13.6 nM | 37.5 nM
Y[Aib]EGTFTSDYSI[Aib]LEKQAQ[Aib]AFVEWLIK([γGlu-γGlu-γGlu-γGlu-C18 diacid])GGPSEGASLRHYYNWLTRQRY-NH2 (also: TFA salt) [Compound 294] | 0.08 nM | 3.2 nM | 0.21 nM | 0.89 nM | 14.2 nM | 55.2 nM
Y[Aib]EGTFTSDYSI[Aib]LEKQAQ[Aib]AFVEWLIK([Glu-Glu-Glu-Glu-C18 diacid])GGPSEGASLRHYYNWLTRQRY-NH2 (also: TFA salt) [Compound 291] | 0.1 nM | 2.35 nM | 0.18 nM | 0.7 nM | 14.3 nM | 55.3 nM
Y[Aib]EGTFTSDYSI[Aib]LEKQAQ[Aib]AFVEWLIKGGPSEGASLRHYYNWLTRQRY-NH2 (not fully specified (residue 28); also: TFA salt) [Compound 295] | 0.14 nM | 3.53 nM | 0.3 nM | 0.98 nM | 10.9 nM | 30.2 nM

Now from value to binder:

EC50 hGLP1R 0.5% hP (CreLuc) [1] | EC50 hGLP1R 100% hP (CreLuc) [1] | EC50 hGIPR 0.5% hP (CreLuc) [2] | EC50 hGIPR 100% hP (CreLuc) [2] | EC50 hNPY2R 0.5% hP (CreLuc) [3] | EC50 hNPY2R 100% hP (CreLuc) [3] | Binder
0.2 nM | 4.42 nM | 0.36 nM | 2.36 nM | 33.3 nM | 122 nM | Y[Aib]EGTFTSDYSI[Aib]LEKQAQ[Aib]AFVEWLIK([Ahx-γGlu-γGlu-γGlu-γGlu-γGlu-γGlu-C18 diacid])GGPSEGASLRHYYNWLTRQRY-NH2 (also: TFA salt) [Compound 303]
0.35 nM | 10.3 nM | 0.23 nM | 2.35 nM | 35.7 nM | 114 nM | YXEGTFTSDYSIXLEKQAQXAFVEWLIKGGPSEGASLRHYYNWLTRQRY (Aib at 2, 13, 20; K28 side chain acylated with C18DA-gGlu-gGlu-gGlu-gGlu-gGlu-AHX; C-terminal amide (NH2)) [Compound 304]
0.23 nM | 11.3 nM | 0.58 nM | 3.27 nM | 25.4 nM | 99.3 nM | YXEGTFTSDYSIXLEKQAQXAFVEWLIKGGPSEGASLRHYYNWLTRQRY (Aib at 2, 13, 20; K28 side chain acylated with C20DA-gGlu-gGlu-gGlu-gGlu-gGlu-AHX; C-terminal amide (NH2)) [Compound 301]
0.12 nM | 3.74 nM | 0.25 nM | 0.93 nM | 14.4 nM | 40.5 nM | Y[Aib]EGTFTSDYSI[Aib]LEKQAQ[Aib]AFVEWLIK([AEEA-AEEA-γGlu-γGlu-γGlu-γGlu-C18 diacid])GGPSEGASLRHYYNWLTRQRY-NH2 (also: TFA salt) [Compound 297]
0.29 nM | 7.08 nM | 0.65 nM | 2.81 nM | 18.2 nM | 101 nM | Y[Aib]EGTFTSDYSI[Aib]LEKQAQ[Aib]AFVEWLIK([γGlu-γGlu-γGlu-γGlu-γGlu-γGlu-C20 diacid])GGPSEGASLRHYYNWLTRQRY-NH2 (also: TFA salt) [Compound 305]
0.08 nM | 2.97 nM | 0.4 nM | 0.71 nM | 11 nM | 31.6 nM | Y[Aib]EGTFTSDYSI[Aib]LEKQAQ[Aib]AFVEWLIK([AEEA-AEEA-γGlu-γGlu-γGlu-C18 diacid])GGPSEGASLRHYYNWLTRQRY-NH2 (also: TFA salt) [Compound 299]
0.15 nM | 6.05 nM | 0.33 nM | 3.87 nM | 31.9 nM | 173 nM | Y[Aib]EGTFTSDYSI[Aib]LEKQAQ[Aib]AFVEWLIK([Glu-Glu-Glu-Glu-Glu-Glu-C18 diacid])GGPSEGASLRHYYNWLTRQRY-NH2 (also: TFA salt) [Compound 302]
0.11 nM | 5.22 nM | 0.13 nM | 1.27 nM | 12.1 nM | 66.5 nM | Y[Aib]EGTFTSDYSI[Aib]LEKQAQ[Aib]AFVEWLIK([OEG-OEG-Glu-Glu-Glu-C18 diacid])GGPSEGASLRHYYNWLTRQRY-NH2 (also: TFA salt) [Compound 298]
0.11 nM | 6.33 nM | 0.16 nM | 1.81 nM | 20 nM | 89.3 nM | Y[Aib]EGTFTSDYSI[Aib]LEKQAQ[Aib]AFVEWLIK([AEEA-γGlu-γGlu-γGlu-C18 diacid])GGPSEGASLRHYYNWLTRQRY-NH2 (also: TFA salt) [Compound 300]
